In patent US20250243262A1:

Assays:
[1] = target: rPcrV protein (recombinant Pseudomonas PcrV) (Pseudomonas aeruginosa); test: SPR (Bio-Rad ProteOn XPR36); antibody captured on GLC sensor chip with anti-human IgG, rPcrV injected at multiple concentrations
[2] = target: rPcrV protein (recombinant Pseudomonas PcrV) (Pseudomonas aeruginosa); test: SPR (Bio-Rad ProteOn XPR36); antibody captured, rPcrV as analyte; table under the sensorgram
[3] = target: rPcrV protein (recombinant Pseudomonas PcrV) (Pseudomonas aeruginosa); test: SPR (Bio-Rad ProteOn XPR36); antibody captured by anti-human IgG on GLC chip, rPcrV injected

- Kd [1]: 0.0456 nM
- koff [1]: 4.03e-05 s⁻¹
- kon [1]: 884000 M⁻¹ s⁻¹
- Kd [2]: 0.046 nM
- koff [2]: 4.03e-05 s⁻¹
- kon [2]: 884000 M⁻¹ s⁻¹
- fold increase in Kd over V2L2-GL [3]: 2 to 3 fold
Substance: V2L2-MD (germlined lead optimized V2L2) (antibody)
